# Measured values: paper PMC9482650, “Quantitative fragmentomics allow affinity mapping of interactomes” (Nature Communications, 2022)
# B1: SLC6A3, Q01959 (peptide)
# chain: QFTLRHWLKV
# B2: MARCHF4, Q9P2E8 (peptide)
# chain: RELVMRVTTV
# Target: T1, MPDZ_12, O75970
# T1 sequence (O75970 1857-1958, limits assumed, looked up): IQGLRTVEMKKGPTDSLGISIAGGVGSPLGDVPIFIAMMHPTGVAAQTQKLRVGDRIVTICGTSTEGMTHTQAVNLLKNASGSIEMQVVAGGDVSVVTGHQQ
# Test: holdup assay
# Parameters: key: below the threshold = too weak to quantify, mostly under pKd 3.1 to 4
# Conditions: plain residues with an end cap or a label only (N-terminal biotin on a linker: ado-ado)
row,Binder,pKd
1,B1,below the threshold
2,B2,below the threshold

# Target: SCRIB_1, Q14160
# Sequence (Q14160 718-814): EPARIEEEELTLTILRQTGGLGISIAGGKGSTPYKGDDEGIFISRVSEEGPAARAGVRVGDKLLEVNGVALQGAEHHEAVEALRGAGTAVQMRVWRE
# Test: holdup assay
# Parameters: key: below the threshold = too weak to quantify, mostly under pKd 3.1 to 4
# Conditions: plain residues with an end cap or a label only (N-terminal biotin on a linker: ado-ado)
row,Binder,pKd
1,B1,below the threshold
2,B2,4.67

# Target: NHERF2_2, Q15599
# Sequence (Q15599 142-238): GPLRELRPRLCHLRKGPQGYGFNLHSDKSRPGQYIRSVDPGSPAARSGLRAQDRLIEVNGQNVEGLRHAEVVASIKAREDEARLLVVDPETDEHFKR
# Test: holdup assay
# Parameters: key: below the threshold = too weak to quantify, mostly under pKd 3.1 to 4
# Conditions: plain residues with an end cap or a label only (N-terminal biotin on a linker: ado-ado)
row,Binder,pKd
1,B1,below the threshold
2,B2,below the threshold

# Target: LIMK2, P53671
# Sequence (P53671 143-248): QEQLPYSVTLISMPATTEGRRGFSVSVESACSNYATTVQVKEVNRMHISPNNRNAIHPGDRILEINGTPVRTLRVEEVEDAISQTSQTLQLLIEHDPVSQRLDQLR
# Test: holdup assay
# Parameters: key: below the threshold = too weak to quantify, mostly under pKd 3.1 to 4
# Conditions: plain residues with an end cap or a label only (N-terminal biotin on a linker: ado-ado)
row,Binder,pKd
1,B1,below the threshold
2,B2,below the threshold

# Target: NHERF4_1, Q86UT5-2
# Sequence (Q86UT5 other isoform, or with tags, fused parts or gaps): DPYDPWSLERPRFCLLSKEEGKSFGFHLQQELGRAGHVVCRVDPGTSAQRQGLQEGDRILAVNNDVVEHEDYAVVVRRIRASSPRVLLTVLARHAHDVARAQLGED
# Test: holdup assay
# Parameters: key: below the threshold = too weak to quantify, mostly under pKd 3.1 to 4
# Conditions: plain residues with an end cap or a label only (N-terminal biotin on a linker: ado-ado)
row,Binder,pKd
1,B1,below the threshold
2,B2,below the threshold

# Target: T2, LIN7A, O14910
# T2 sequence (O14910 103-200, limits assumed, looked up): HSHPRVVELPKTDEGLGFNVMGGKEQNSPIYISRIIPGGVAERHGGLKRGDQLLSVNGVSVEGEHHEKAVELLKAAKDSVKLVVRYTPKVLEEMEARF
# Test: holdup assay
# Parameters: key: below the threshold = too weak to quantify, mostly under pKd 3.1 to 4
# Conditions: plain residues with an end cap or a label only (N-terminal biotin on a linker: ado-ado)
row,Binder,pKd
1,B1,below the threshold
2,B2,3.7

# Target: PARD3_3, Q8TEW0
# Sequence (Q8TEW0 582-685): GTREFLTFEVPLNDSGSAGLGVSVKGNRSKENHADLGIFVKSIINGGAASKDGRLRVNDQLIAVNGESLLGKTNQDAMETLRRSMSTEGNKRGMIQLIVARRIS
# Test: holdup assay
# Parameters: key: below the threshold = too weak to quantify, mostly under pKd 3.1 to 4
# Conditions: plain residues with an end cap or a label only (N-terminal biotin on a linker: ado-ado)
row,Binder,pKd
1,B1,below the threshold
2,B2,below the threshold

# Target: SNX27, Q96L92
# Test: holdup assay
# Parameters: key: below the threshold = too weak to quantify, mostly under pKd 3.1 to 4
# Conditions: plain residues with an end cap or a label only (N-terminal biotin on a linker: ado-ado)
row,Binder,pKd
1,B1,3.76
2,B2,5.48

# Target: T3, LNX2_3, Q8N448
# T3 sequence (Q8N448 463-564, limits assumed, looked up): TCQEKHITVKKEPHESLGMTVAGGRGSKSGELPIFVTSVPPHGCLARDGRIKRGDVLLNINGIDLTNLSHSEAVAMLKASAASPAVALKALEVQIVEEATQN
# Test: holdup assay
# Parameters: key: below the threshold = too weak to quantify, mostly under pKd 3.1 to 4
# Conditions: plain residues with an end cap or a label only (N-terminal biotin on a linker: ado-ado)
row,Binder,pKd
1,B1,below the threshold
2,B2,below the threshold

# Target: DLG4_3, P78352
# Sequence (P78352 306-403): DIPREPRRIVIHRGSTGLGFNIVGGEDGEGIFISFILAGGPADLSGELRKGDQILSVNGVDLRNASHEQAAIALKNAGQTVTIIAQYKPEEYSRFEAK
# Test: holdup assay
# Parameters: key: below the threshold = too weak to quantify, mostly under pKd 3.1 to 4
# Conditions: plain residues with an end cap or a label only (N-terminal biotin on a linker: ado-ado)
row,Binder,pKd
1,B1,below the threshold
2,B2,4.87

# Target: GRIP2_4, Q9C0E4
# Sequence (Q9C0E4 446-548): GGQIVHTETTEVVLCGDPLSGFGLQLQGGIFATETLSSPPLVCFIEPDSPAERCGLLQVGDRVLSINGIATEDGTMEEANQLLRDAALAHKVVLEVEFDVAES
# Test: holdup assay
# Parameters: key: below the threshold = too weak to quantify, mostly under pKd 3.1 to 4
# Conditions: plain residues with an end cap or a label only (N-terminal biotin on a linker: ado-ado)
row,Binder,pKd
1,B1,below the threshold
2,B2,below the threshold

# Target: GRASP, Q7Z6J2
# Sequence (Q7Z6J2 96-193): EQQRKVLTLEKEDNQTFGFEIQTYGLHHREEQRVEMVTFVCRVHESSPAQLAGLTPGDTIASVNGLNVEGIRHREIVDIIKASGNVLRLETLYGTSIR
# Test: holdup assay
# Parameters: key: below the threshold = too weak to quantify, mostly under pKd 3.1 to 4
# Conditions: plain residues with an end cap or a label only (N-terminal biotin on a linker: ado-ado)
row,Binder,pKd
1,B1,3.8
2,B2,4.63

# Target: MAGI2_2, Q86UL8
# Sequence (Q86UL8 410-522): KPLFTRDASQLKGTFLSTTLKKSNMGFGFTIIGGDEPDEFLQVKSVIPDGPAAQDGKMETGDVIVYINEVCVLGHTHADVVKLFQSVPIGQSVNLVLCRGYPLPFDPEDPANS
# Test: holdup assay
# Parameters: key: below the threshold = too weak to quantify, mostly under pKd 3.1 to 4
# Conditions: plain residues with an end cap or a label only (N-terminal biotin on a linker: ado-ado)
row,Binder,pKd
1,B1,3.68
2,B2,5.12

# Target: Inadl_8, Q8NI35
# Sequence (Q8NI35 1425-1530): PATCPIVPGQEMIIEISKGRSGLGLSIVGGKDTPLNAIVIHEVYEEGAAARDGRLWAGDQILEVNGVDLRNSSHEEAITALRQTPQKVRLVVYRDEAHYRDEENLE
# Test: holdup assay
# Parameters: key: below the threshold = too weak to quantify, mostly under pKd 3.1 to 4
# Conditions: plain residues with an end cap or a label only (N-terminal biotin on a linker: ado-ado)
row,Binder,pKd
1,B1,below the threshold
2,B2,5.5

# Target: T4, NHERF3_4, Q5T2W1
# T4 sequence (Q5T2W1 373-468, limits assumed, looked up): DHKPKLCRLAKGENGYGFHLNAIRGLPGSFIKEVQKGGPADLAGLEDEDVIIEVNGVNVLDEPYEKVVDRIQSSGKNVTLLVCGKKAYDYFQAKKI
# Test: holdup assay
# Parameters: key: below the threshold = too weak to quantify, mostly under pKd 3.1 to 4
# Conditions: plain residues with an end cap or a label only (N-terminal biotin on a linker: ado-ado)
row,Binder,pKd
1,B1,3.74
2,B2,3.58

# Target: TJP2_1, Q9UDY2
# Sequence (Q9UDY2 24-128): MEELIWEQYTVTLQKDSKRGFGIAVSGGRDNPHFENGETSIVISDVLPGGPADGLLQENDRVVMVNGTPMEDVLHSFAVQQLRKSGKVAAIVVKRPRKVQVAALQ
# Test: holdup assay
# Parameters: key: below the threshold = too weak to quantify, mostly under pKd 3.1 to 4
# Conditions: plain residues with an end cap or a label only (N-terminal biotin on a linker: ado-ado)
row,Binder,pKd
1,B1,below the threshold
2,B2,3.86

# Target: Inadl_9, Q8NI35
# Sequence (Q8NI35 1530-1615): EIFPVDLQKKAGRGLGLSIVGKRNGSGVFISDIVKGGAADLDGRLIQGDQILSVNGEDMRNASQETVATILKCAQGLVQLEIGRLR
# Test: holdup assay
# Parameters: key: below the threshold = too weak to quantify, mostly under pKd 3.1 to 4
# Conditions: plain residues with an end cap or a label only (N-terminal biotin on a linker: ado-ado)
row,Binder,pKd
1,B1,below the threshold
2,B2,3.82

# Target: T5, SHANK1, Q9Y566
# T5 sequence (Q9Y566 658-767, limits assumed, looked up): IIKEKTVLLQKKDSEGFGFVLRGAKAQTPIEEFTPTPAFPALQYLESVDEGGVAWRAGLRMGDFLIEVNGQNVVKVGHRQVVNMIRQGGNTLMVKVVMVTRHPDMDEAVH
# Test: holdup assay
# Parameters: key: below the threshold = too weak to quantify, mostly under pKd 3.1 to 4
# Conditions: plain residues with an end cap or a label only (N-terminal biotin on a linker: ado-ado)
row,Binder,pKd
1,B1,below the threshold
2,B2,3.58

# Target: HTRA2, O43464
# Sequence (O43464 355-458): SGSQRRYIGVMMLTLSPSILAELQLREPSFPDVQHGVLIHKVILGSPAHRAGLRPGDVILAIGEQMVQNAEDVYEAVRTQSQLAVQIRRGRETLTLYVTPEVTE
# Test: holdup assay
# Parameters: key: below the threshold = too weak to quantify, mostly under pKd 3.1 to 4
# Conditions: plain residues with an end cap or a label only (N-terminal biotin on a linker: ado-ado)
row,Binder,pKd
1,B1,4.06
2,B2,3.83

# Target: IL16_4, Q14005
# Sequence (Q14005 1229-1329): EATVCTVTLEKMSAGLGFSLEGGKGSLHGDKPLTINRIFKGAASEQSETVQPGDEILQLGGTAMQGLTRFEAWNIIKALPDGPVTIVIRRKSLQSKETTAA
# Test: holdup assay
# Parameters: key: below the threshold = too weak to quantify, mostly under pKd 3.1 to 4
# Conditions: plain residues with an end cap or a label only (N-terminal biotin on a linker: ado-ado)
row,Binder,pKd
1,B1,below the threshold
2,B2,below the threshold

# Target: LNX1_3, Q8TBB1
# Sequence (Q8TBB1 500-596): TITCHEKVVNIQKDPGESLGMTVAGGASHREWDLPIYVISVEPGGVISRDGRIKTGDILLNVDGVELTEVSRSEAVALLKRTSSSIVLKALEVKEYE
# Test: holdup assay
# Parameters: key: below the threshold = too weak to quantify, mostly under pKd 3.1 to 4
# Conditions: plain residues with an end cap or a label only (N-terminal biotin on a linker: ado-ado)
row,Binder,pKd
1,B1,3.83
2,B2,below the threshold

# Target: T6, PDZD2_2, O15018
# T6 sequence (O15018 329-429, limits assumed, looked up): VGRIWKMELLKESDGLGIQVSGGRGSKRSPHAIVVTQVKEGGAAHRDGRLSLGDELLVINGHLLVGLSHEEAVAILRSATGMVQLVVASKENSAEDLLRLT
# Test: holdup assay
# Parameters: key: below the threshold = too weak to quantify, mostly under pKd 3.1 to 4
# Conditions: plain residues with an end cap or a label only (N-terminal biotin on a linker: ado-ado)
row,Binder,pKd
1,B1,below the threshold
2,B2,4.46

# Target: T7, CARD11, Q9BXL7
# T7 sequence (Q9BXL7 662-765, limits assumed, looked up): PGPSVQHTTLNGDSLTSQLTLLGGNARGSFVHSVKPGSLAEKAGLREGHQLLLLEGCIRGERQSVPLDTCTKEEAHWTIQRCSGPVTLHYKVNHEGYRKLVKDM
# Test: holdup assay
# Parameters: key: below the threshold = too weak to quantify, mostly under pKd 3.1 to 4
# Conditions: plain residues with an end cap or a label only (N-terminal biotin on a linker: ado-ado)
row,Binder,pKd
1,B1,below the threshold
2,B2,below the threshold

# Target: DLG5_1, Q8TDM6
# Sequence (Q8TDM6 617-713): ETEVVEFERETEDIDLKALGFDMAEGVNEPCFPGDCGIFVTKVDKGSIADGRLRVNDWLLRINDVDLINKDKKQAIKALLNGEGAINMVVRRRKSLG
# Test: holdup assay
# Parameters: key: below the threshold = too weak to quantify, mostly under pKd 3.1 to 4
# Conditions: plain residues with an end cap or a label only (N-terminal biotin on a linker: ado-ado)
row,Binder,pKd
1,B1,below the threshold
2,B2,below the threshold

# Target: Inadl_3, Q8NI35
# Sequence (Q8NI35 359-469): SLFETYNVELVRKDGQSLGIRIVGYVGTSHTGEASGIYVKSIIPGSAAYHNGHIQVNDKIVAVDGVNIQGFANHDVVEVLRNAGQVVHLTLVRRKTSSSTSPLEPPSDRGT
# Test: holdup assay
# Parameters: key: below the threshold = too weak to quantify, mostly under pKd 3.1 to 4
# Conditions: plain residues with an end cap or a label only (N-terminal biotin on a linker: ado-ado)
row,Binder,pKd
1,B1,below the threshold
2,B2,4.03

# Target: T8, APBA1_2, Q02410
# T8 sequence (Q02410 742-832, limits assumed, looked up): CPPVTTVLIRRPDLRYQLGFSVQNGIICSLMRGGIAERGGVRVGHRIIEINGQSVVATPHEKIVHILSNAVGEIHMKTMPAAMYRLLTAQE
# Test: holdup assay
# Parameters: key: below the threshold = too weak to quantify, mostly under pKd 3.1 to 4
# Conditions: plain residues with an end cap or a label only (N-terminal biotin on a linker: ado-ado)
row,Binder,pKd
1,B1,below the threshold
2,B2,3.65

# Target: GRIP2_6, Q9C0E4
# Sequence (Q9C0E4 648-740): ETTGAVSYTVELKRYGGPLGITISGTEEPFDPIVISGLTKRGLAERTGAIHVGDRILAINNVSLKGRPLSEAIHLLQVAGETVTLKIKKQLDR
# Test: holdup assay
# Parameters: key: below the threshold = too weak to quantify, mostly under pKd 3.1 to 4
# Conditions: plain residues with an end cap or a label only (N-terminal biotin on a linker: ado-ado)
row,Binder,pKd
1,B1,3.9
2,B2,below the threshold

# Target: T9, RAPGEF6, Q8TEU7
# T9 sequence (Q8TEU7 525-625, limits assumed, looked up): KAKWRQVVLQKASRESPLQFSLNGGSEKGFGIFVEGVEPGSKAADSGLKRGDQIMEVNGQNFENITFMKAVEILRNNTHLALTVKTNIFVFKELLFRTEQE
# Test: holdup assay
# Parameters: key: below the threshold = too weak to quantify, mostly under pKd 3.1 to 4
# Conditions: plain residues with an end cap or a label only (N-terminal biotin on a linker: ado-ado)
row,Binder,pKd
1,B1,below the threshold
2,B2,below the threshold

# Target: MAGI1_1, Q96QZ7
# Sequence (Q96QZ7 1-106): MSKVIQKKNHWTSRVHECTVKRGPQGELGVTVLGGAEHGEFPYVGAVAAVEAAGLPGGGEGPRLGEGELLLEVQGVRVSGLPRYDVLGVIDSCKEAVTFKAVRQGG
# Test: holdup assay
# Parameters: key: below the threshold = too weak to quantify, mostly under pKd 3.1 to 4
# Conditions: plain residues with an end cap or a label only (N-terminal biotin on a linker: ado-ado)
row,Binder,pKd
1,B1,below the threshold
2,B2,below the threshold
